Four molecules from US20220119534A1 (DRAGONFLY THERAPEUTICS, published 2022) can be followed below.

Substitutions are numbered along the chain they refer to. In names and notes the source's numbering stands. Several values for one entry are separate records, joined by “and”; a condition that tells them apart may be missing. Identical values can stand only once.

The target of experiment [1] is T1, Human CD16a V158 (FcγRIIIa V158) (human, UniProt P08637 17-208, biotinylated (site not stated)).
T1 construct: V158 is the allele name in mature numbering; also called hCD16aV; hCD16a V158
T1 sequence (P08637 17-208 F176V limits assumed): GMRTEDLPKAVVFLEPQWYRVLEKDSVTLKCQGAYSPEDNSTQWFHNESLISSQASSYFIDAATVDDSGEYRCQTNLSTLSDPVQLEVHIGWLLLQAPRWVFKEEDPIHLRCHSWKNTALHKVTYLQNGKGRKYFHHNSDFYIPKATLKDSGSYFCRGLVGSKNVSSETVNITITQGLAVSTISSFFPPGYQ
The experiment in a line: SPR; biotinylated CD16a V158 captured on SA chip, TriNKET as analyte; 1:1 kinetic fit; control sample, n=3. For orientation: Surface plasmon resonance follows binding to a sensor surface in real time, without labels.

Another experiment addresses T2, mFc-hNKG2D (human, UniProt P26718 73-216).
T2 construct: extracellular domain; Made in house (Dragonfly Tx); the order of tag and ECD follows the name mFc-hNKG2D; also called mFc-tagged human NKG2D; not shown: mouse Fc tag
T2 sequence (looked up): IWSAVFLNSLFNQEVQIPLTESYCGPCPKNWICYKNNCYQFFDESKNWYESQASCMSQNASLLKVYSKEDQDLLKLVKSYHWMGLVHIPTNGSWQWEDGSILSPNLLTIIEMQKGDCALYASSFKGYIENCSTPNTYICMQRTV
The experiment in a line: SPR Biacore 8K 37 C; mFc-hNKG2D captured on anti-mFc chip, TriNKET as analyte; steady state fit; pH 8.0 control.

The next experiment addresses T3, Human CLEC12A-His (human, UniProt Q5QGZ9 65-265).
T3 construct: Recombinant soluble protein made in house (Dragonfly Tx); The hCLEC12A spot of the HuProt array is written under this molecule as well; also called hCLEC12A-His; hCLEC12A; not shown: His tag
T3 sequence: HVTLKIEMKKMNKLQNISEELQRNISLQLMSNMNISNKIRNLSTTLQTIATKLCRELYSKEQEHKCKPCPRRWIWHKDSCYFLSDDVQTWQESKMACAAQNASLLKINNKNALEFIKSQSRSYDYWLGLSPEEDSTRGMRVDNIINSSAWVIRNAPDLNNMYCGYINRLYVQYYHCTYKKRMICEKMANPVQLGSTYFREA
The experiment in a line: SPR Biacore 8K 37 C; TriNKET captured on anti-hFc chip, hCLEC12A-His as analyte; 1:1 fit; after 4 wks 25 C in CST pH 7.0, n=2.

The target in a further experiment is T4, Human CD16a F158 (human, UniProt P08637 17-208, biotinylated).
T4 construct: Bought recombinant receptor; also called hFcγRIIIa F158
T4 sequence (P08637 17-208 limits assumed): as the sequence (P08637 17-208 F176V limits assumed) above, with V160F counted along it
Kind of experiment: SPR, steady state fit; average for AB0192.

In a further experiment the target is T5, Cynomolgus CD16 (cynomolgus monkey, UniProt Q8SPW2 17-208, biotinylated).
T5 construct: Bought recombinant receptor; also called cFcγRIII; Cynomolgus FcγRIII
T5 sequence (Q8SPW2 17-208 limits assumed): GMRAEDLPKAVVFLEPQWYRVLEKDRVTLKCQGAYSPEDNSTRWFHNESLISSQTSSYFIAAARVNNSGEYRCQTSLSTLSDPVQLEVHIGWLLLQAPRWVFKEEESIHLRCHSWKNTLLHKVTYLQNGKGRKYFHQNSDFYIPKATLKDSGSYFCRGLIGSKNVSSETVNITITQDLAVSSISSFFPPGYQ
The experiment in a line: SPR, steady state fit; average for AB0192.

The target of a further experiment is T6, Human CD64 (FcγRI) (human, UniProt P12314 16-288, biotinylated).
T6 construct: Bought recombinant receptor; also called hFcγRI; Human FcγRI
T6 sequence (P12314 16-288 limits assumed): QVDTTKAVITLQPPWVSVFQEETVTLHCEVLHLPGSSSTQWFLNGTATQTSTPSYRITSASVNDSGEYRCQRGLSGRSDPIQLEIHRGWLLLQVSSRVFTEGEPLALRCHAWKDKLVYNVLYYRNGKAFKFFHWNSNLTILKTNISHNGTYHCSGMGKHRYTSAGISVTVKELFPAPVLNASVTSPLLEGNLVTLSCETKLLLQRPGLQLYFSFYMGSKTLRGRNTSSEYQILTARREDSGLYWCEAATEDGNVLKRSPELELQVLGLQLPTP
Kind of experiment: SPR 25C, average.

For another experiment, the target named is T7, Cynomolgus CD64 (FcγRI) (cynomolgus monkey, UniProt A0A2K5U901 33-309, Biotinylated and captured on the CAP chip (p-1094); the biotin site is not stated.).
T7 construct: Bought recombinant receptor; also called cFcγRI; Cynomolgus FcγRI; not shown: The vendor's biotinylation and purification tag (ACRO FCA-C82E8)
T7 sequence (A0A2K5U901 entry or part of it limits assumed): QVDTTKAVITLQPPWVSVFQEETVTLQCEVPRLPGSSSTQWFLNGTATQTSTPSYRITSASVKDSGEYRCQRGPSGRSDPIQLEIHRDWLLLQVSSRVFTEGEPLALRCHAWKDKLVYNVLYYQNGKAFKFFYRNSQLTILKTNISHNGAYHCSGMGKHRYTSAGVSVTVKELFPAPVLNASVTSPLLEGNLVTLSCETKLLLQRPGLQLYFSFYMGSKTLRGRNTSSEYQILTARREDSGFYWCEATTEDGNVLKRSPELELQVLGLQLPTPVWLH
Kind of experiment: SPR 25C, average.

For experiment [2], the target named is T8, Human CLEC12A expressed on cells (Ba/F3-hCLEC12A, PL21, HL60) (human, UniProt Q5QGZ9 1-265).
T8 sequence: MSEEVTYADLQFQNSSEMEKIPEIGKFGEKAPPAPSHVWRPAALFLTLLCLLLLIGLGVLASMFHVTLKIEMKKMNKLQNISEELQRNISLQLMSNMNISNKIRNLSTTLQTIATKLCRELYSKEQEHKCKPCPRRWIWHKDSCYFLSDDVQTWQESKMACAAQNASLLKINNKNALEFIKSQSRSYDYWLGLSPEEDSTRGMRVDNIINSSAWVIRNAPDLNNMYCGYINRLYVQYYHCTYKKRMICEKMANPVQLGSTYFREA
Kind of experiment: cell-based or functional assay.

Experiment [3] addresses T9, mFc-hNKG2D (recombinant mFc-tagged human NKG2D dimer) (human, UniProt P26718 73-216).
T9 construct: extracellular domain; Made in house; not shown: mouse Fc tag
T9 sequence (looked up): T2 sequence (looked up)
Kind of experiment: SPR 37C, 1:1 kinetic fit, average.

Experiment [4] has as its target T9, mFc-hNKG2D (recombinant mFc-tagged …). The experiment in a line: SPR; after 4 wks 40C in CST pH 7.0.
Experiment [5] deals with T10, Human CD16a V158 (FcγRIIIa V158) (human, UniProt P08637 17-208, biotinylated).
T10 construct: Bought recombinant receptor; also called hCD16aV; hFcγRIIIa V158
T10 sequence (P08637 17-208 F176V limits assumed): as the sequence (P08637 17-208 F176V limits assumed) above
The experiment in a line: SPR; after 4 wks 40C in CST pH 7.0.

Experiment [6] concerns the target T11, recombinant human CLEC12A-His (human, UniProt Q5QGZ9 65-265).
T11 construct: also called hCLEC12A-His; hCLEC12A
T11 sequence: T3 sequence
The experiment in a line: SPR.

For the next experiment, the target named is T12, recombinant human CD64 (human, UniProt P12314 16-288, biotinylated).
T12 construct: also called hFcγRI; hCD64
T12 sequence (P12314 16-288 limits assumed): as the sequence (P12314 16-288 limits assumed) above
The experiment in a line: SPR 25C, kinetic fit, average.

The target of the next experiment is T13, recombinant human CD32b (human, UniProt P31994 46-217, limits assumed, biotinylated).
T13 construct: also called FcγRIIb
T13 sequence (looked up): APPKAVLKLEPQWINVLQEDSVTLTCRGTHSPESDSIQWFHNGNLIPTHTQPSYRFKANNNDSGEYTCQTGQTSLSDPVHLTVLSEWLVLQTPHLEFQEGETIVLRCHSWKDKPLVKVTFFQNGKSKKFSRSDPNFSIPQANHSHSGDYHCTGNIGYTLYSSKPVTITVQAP
The experiment in a line: SPR 25C, steady state, average.

Experiment [7] concerns the target T11, recombinant human CLEC12A-His. Kind of experiment: SPR 37C, TriNKET captured on anti-hFc.

B1: F3'-1602 TriNKET (bispecific antibody, human IgG1, kappa)
chain: QLQLQESGPGLVKPSETLSLTCTVSGFSLTNYGLHWIRQPPGKCLEWIGVIWSGGKTDYNPSLKSRVTISKDTSKNQFSLKLSSVQAADTAVYYCAKYDYDDSLDYWGQGTLVTVSSGGGGSGGGGSGGGGSGGGGSDIQMTQSPSSLSASVGDRVTITCHASQNINFWLSWYQQKPGKAPKLLIYEASNLHTGVPSRFSGSGSGTRFTLTISSLQPEDIATYYCQQSHSYPLTFGCGTKLEIKGSDKTHTCPPCPAPELLGGPSVFLFPPKPKDTLMISRTPEVTCVVVDVSHEDPEVKFNWYVDGVEVHNAKTKPREEQYNSTYRVVSVLTVLHQDWLNGKEYKCKVSNKALPAPIEKTISKAKGQPREPRVYTLPPCRDELTKNQVSLTCLVKGFYPSDIAVEWESNGQPENNYKTTPPVLVSDGSFTLYSKLTVDKSRWQQGNVFSCSVMHEALHNHYTQKSLSLSPG
heavy: EVQLVESGGGLVKPGGSLRLSCAASGFTFSSYSMNWVRQAPGKGLEWVSSISSSSSYIYYADSVKGRFTISRDNAKNSLYLQMNSLRAEDTAVYYCARGAPIGAAAGWFDPWGQGTLVTVSSASTKGPSVFPLAPSSKSTSGGTAALGCLVKDYFPEPVTVSWNSGALTSGVHTFPAVLQSSGLYSLSSVVTVPSSSLGTQTYICNVNHKPSNTKVDKKVEPKSCDKTHTCPPCPAPELLGGPSVFLFPPKPKDTLMISRTPEVTCVVVDVSHEDPEVKFNWYVDGVEVHNAKTKPREEQYNSTYRVVSVLTVLHQDWLNGKEYKCKVSNKALPAPIEKTISKAKGQPREPQVCTLPPSRDELTENQVSLTCLVKGFYPSDIAVEWESNGQPENNYKTTPPVLDSDGSFFLYSWLTVDKSRWQQGNVFSCSVMHEALHNHYTQKSLSLSPG
light: DIQMTQSPSSVSASVGDRVTITCRASQGISSWLAWYQQKPGKAPKLLIYAASSLQSGVPSRFSGSGSGTDFTLTISSLQPEDFATYYCQQGVSFPRTFGGGTKVEIKRTVAAPSVFIFPPSDEQLKSGTASVVCLLNNFYPREAKVQWKVDNALQSGNSQESVTEQDSKDSTYSLSSTLTLSKADYEKHKVYACEVTHQGLSSPVTKSFNRGEC
notes: Trispecific F3' format: CLEC12A scFv-Fc paired with NKG2D Fab-Fc; Stressed and control samples of the stability studies are the same molecule; also called AB0237
As a reminder, the Kd is the concentration at which binding is half-saturated. A word on the koff: it is a measure of how fast the partners let go of each other. A word on the kon: it is a measure of how fast the partners come together. With B1, the Kd amounted to 212 nM in [1], 695 nM with mFc-hNKG2D and 0.91 nM with Human CLEC12A-His. Moreover, the values for the dissociation rate constant (koff) (in experiment [1]; with Human CLEC12A-His) were 0.024 s⁻¹ and 0.000719 s⁻¹, respectively. Moreover, the figures for the kon (in experiment [1]; in the experiment with Human CLEC12A-His) were 113000 M⁻¹ s⁻¹ and 788000 M⁻¹ s⁻¹, respectively.

B2: AB0192 TriNKET (other)
chain: EVQLVESGGGVVQPGGSLRLSCAASGFTFNAFGMHWVRQAPGKCLEWVAFISSGSTSIYYANTVKGRFTISRDNSKNTLYLQMNSLRAEDTAVYYCARDGYPTGGAMDYWGQGTSVTVSSGGGGSGGGGSGGGGSGGGGSDIQMTQSPSSLSASVGDRVTITCKASQDIYNYLSWFQQKPGKAPKPLIYRANILVSGVPSRFSGSGSGQDYTFTISSLQPEDIATYYCLQFDAFPFTFGCGTKLEIKGSDKTHTCPPCPAPELLGGPSVFLFPPKPKDTLMISRTPEVTCVVVDVSHEDPEVKFNWYVDGVEVHNAKTKPREEQYNSTYRVVSVLTVLHQDWLNGKEYKCKVSNKALPAPIEKTISKAKGQPREPRVYTLPPCRDELTKNQVSLTCLVKGFYPSDIAVEWESNGQPENNYKTTPPVLVSDGSFTLYSKLTVDKSRWQQGNVFSCSVMHEALHNHYTQKSLSLSPG
heavy: B1 heavy
light: B1 light
notes: the condition stands under assay; also called AB0192 Lot AB0192-005
For the molecule B2, the equilibrium dissociation constant (Kd) in the experiment with Human CD16a F158 worked out at 680 nM; with Cynomolgus CD16, 204 nM.

B3: AB0089 TriNKET (bispecific antibody, human IgG1, kappa)
chain: B1 chain with S53V, K56A, K71V, Y98G, D101G, S103T, R207D, I220F
heavy: B1 heavy
light: B1 light
notes: F3' format heterodimer of three chains; human IgG1 Fc with EW-RVT and Y349C/S354C mutations; also called AB0089 Lot AB0089-002; CLEC12A TriNKET AB0089
With B3, the Kd amounted to 5.1 nM with Human CD64 (FcγRI); 1.5 nM with Cynomolgus CD64 (FcγRI); 881 nM in experiment [3]; 791 nM in experiment [4]; 342 nM in experiment [5]. For the same molecule, the koff with Human CD64 (FcγRI) was determined as 0.00023 s⁻¹; in the experiment with Cynomolgus CD64 (FcγRI), 8.1e-05 s⁻¹; in experiment [3], 0.143 s⁻¹; in experiment [4] it was 0.126 s⁻¹; in experiment [5], 0.0284 s⁻¹. The kon with Human CD64 (FcγRI) was determined as 46000 M⁻¹ s⁻¹; with Cynomolgus CD64 (FcγRI) it was 55000 M⁻¹ s⁻¹; in experiment [3], 162000 M⁻¹ s⁻¹; in experiment [4], 160000 M⁻¹ s⁻¹; in [5], 83100 M⁻¹ s⁻¹. In addition, the “EC50, cytotoxicity potency; after pH 8, 40C, 2 wks” value in experiment [2] came out at 0.23 nM. Further, the “EC50, cytotoxicity potency; control sample” value in experiment [2] is 0.11 nM.

B4: F3'-1602 TriNKET (other)
chain: B1 chain
heavy: B1 heavy
light: B1 light
notes: CLEC12A scFv-Fc, NKG2D A49MI Fab-Fc, human IgG1 Fc; also called AB0237
Take B4: the dissociation constant Kd in [6] was 0.8 nM; in the experiment with recombinant human CD64, 5.2 nM; in the experiment with recombinant human CD32b, 6600 nM; in experiment [7], 0.58 nM and 0.59 nM and 0.57 nM and 0.6 nM. The dissociation rate constant (koff) with recombinant human CD64 is 0.00027 s⁻¹; in experiment [7], 0.000494 s⁻¹ and 0.000489 s⁻¹ and 0.000499 s⁻¹. In addition, the kon with recombinant human CD64 was 52000 M⁻¹ s⁻¹; in experiment [7] it was 854000 M⁻¹ s⁻¹ and 833000 M⁻¹ s⁻¹ and 863000 M⁻¹ s⁻¹ and 826000 M⁻¹ s⁻¹.
